test: yeast display, Sf9 membrane polyspecificity reagent, FACS + sequencing; frameworks hold sequencing errors
How it was run: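 Synthetic nanobody libraries on Saccharomyces cerevisiae BJ5465 were galactose-induced for 36–48 hours, stained 1 hour at 4 °C with 10% biotinylated, detergent-solubilized Sf9 membrane reagent and enriched on streptavidin microbeads. FACS then separated cells into low and high (top ~1%) gates by anti-HA (expression) and streptavidin (reagent binding) fluorescence. Genes were colony-PCR amplified, MiSeq 2 × 250 sequenced and CDR-length filtered. A clone's polyreactivity label is that of its gate of origin.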

Sequence | polyreactivity (PSR sort gate)
QVQLVESGGGLVQAGGSLRLSCAASGSIFYINAMGWYRQAPGKERELVAAITWRGAGTYYADSVKGRFTISRDNAKNTVYLQMNSLKPEDTAVYYCAADDSPWRVPRNYWGQGTQVTVSS | low polyreactivity
QVQLVESGGGLVQAGGSLRLSCAASGINFTSYAMGWYRQAPGKERELVAAISSSGVRTYYADSVKGRFTISRDNAKNTVYLQMNSQKPEDTAVYYCATRRRVLYGYDYWGQGTQVTVSS | high polyreactivity
QVQLVESGGGLVQAGGSLRLTCAASGRIFRRNAMGGYRQAPGKEREMVATITSGSSTNYADSVKGRFTISRDNAKNTVYLQMHSLKPEDTAVYYCAKLPWKYRVGYYRNQQTYDYWGQGTQVTVSS | high polyreactivity
QVQLVESGGGLVQAGGSLRLICAASGSTFKTYAMGWYRQAPGQEREFVASISGSGGSTSYADSVKGRFTISRDNAKNTVYLQMNSLKPEDTAVYYCAARLQKPTIGKGVYYWGQGTLVTVSS | high polyreactivity
QVQLVESGGGLVQAGGSLRLSCAASGSTFRYYVMGWYRQAPGKERELVARITSAASTNYADSVKGRFTISRDNAKNTVYLQMNSLKPEDTAVYYCAARKYGSRYRLKYDYWGQGTQVTVSS | high polyreactivity
QVQLVESGGGLVQAGGSLRLSCAASGNTFPLNAMGWYRQAPGKERELVAAISSSGRTYYADSVKGRFTISRDNAKNTVYLQMNSLKPEDTAVFYCNAKWRERGVRMDYWGQGTQVTVSS | high polyreactivity
QVQLVESGGGLVQAGGSLRLSCAASGRTSSSYAMGWSRQAPGKERELVASITSSGRTYYADSVKGRFTISRDNAKNTVYLQMNSLKPEDTAVYYCAAPFYRVRGWYARTPYGYWGQGTQVTVSS | high polyreactivity
QVQLVESGGGLVQAGGSLRLSCAASGSTFSKYAMGWYRQAPGKERELEAAITRTGGRTYYADSVKGRFTISRDNANNTVYLQMNSLKPEDTAVYYCAASATFWGQGTQVTVSS | high polyreactivity
QVHLVQSGGGLVQAGGSLRLSCAASGSILYFYAKGWYRQAPGKERELVAAISWTGGSTYYADSVKGRFTISRDNAKNTVYLQMNSLKPEDTAVYYCAAELWYEGYDYWGQGTQVTVSS | high polyreactivity
QVQLVESGGGLVQAGGSLRLSCAASGSTFVRYVMGWYRQAPGKERELVAAISRRGGSTYYADSVKGRFTISRDNAKNTVYLQMHSLKPEDSAVYYCARTVGYSTLLESVSWGQGTQLTVSS | high polyreactivity
QVQLVESGGGLVQAGGILRLICAASGSIFYYNAMGWSRQAPGKERELVAAITKSGTRTNYADSVKGRFTISRDNAKNTVYLQMNSLKPEDTAVYDCAAEDQYYRYVCAYEYWGQGTQVTVSS | high polyreactivity
QVQLVESGGALVQEGRSLRLSCAASGGTFADYPMGWYRQAPVKERELVAAITNGGSTFYADSVKGRFTSSRDNATNTVYLQMNSLKPDDTAVYYWSAVYLYAYSPYFSAVEMYYWGQGSQVTVSS | low polyreactivity
QVHLVESGGGLVQAGGSLRLSCAASGRIFFTNAMGWYRQAPGKERELVATISSSDGSTYYADSVKGRFTISRDNAKYTVYLQMNSLKPEDTAVYYCAALYSFRGSRQYTYKYYYWGLGTQVTVSS | high polyreactivity
QDQLEESGGGLVQAGGSLRLSCAATGITFSSNAMGWYRQAPGKERELVAAISWSGGSTYYADSVKGRFTISRDYAKNTVYLQMNSLKPEDTAVYYCNASKHNPYGGDYWGQGTQVTVSS | high polyreactivity
QVKLVESGGGLVQAGGSLRISCAASVSIFPVYAMGWYRQAPGKERELVAAISSRGGRTYYADSVKGLFTISRDNAKNTVYLQMNSLKPEDNAVYYFATDYSTYYRLPSQYDYWGQGTQVTVSS | low polyreactivity
QVQLVESGGGLVQAGGSLRLSCAASGRTFRGNAMGWYRQAPGKERELVAAISRSGGTTYYADSVKGRFTISRDNAKNTVYLQMNSLKPEDTAVYYCNRGWATWHGPDDYWGQGTQVTVSS | high polyreactivity
